Test results published in patent publication US20190367631A1.

B1: H1H21234N-N297Q (antibody, human IgG1, V domains shown)
VH: QVQLQESGPGLVKPSETLSLTCTVTGGSISRNYWSWIRQPPGKGLEWIGYIYYSGSIDYNPSLKSRVTISVDTSKNQFSLKLSSMTAADTAVYYCARDRWNWKYGMDVWGQGTTVIVSS
VL: EIVLTQSPGTLSLSPGERATLSCRASQTVRNNYLAWYHQKPGQAPRLLIYGASSRATGIPDRFSGSGSGTDFTLTISRLEPEDFTVYYCHQYGNSPWTFGQGTKMEIKR
B2: H2aM25695N (antibody, mouse IgG2a, V domains shown)
VH: QVQLQESGPGLVKPSETLSLTCTVTGGSISRNYWSWIRQPPGKGLEWIGYIYYSGSINYNPSLKSRVTISVDMSKNQFSLKLNSVTAADTAVYYCARDRWNWKYGMDVWGQGTTVIVSS
VL: EIVLTQSPGTLSLSPGERATLSCRASQTVRNSYLAWYHQKPGQAPRLLIYGASSRATGIPDRFSGSGSGTDFTLTISRLEPEDFAVYYCQQYGSSYWTFGQGTKMEIKR
B3: H1H21234N (antibody, human IgG1, V domains shown)
VH: QVQLQESGPGLVKPSETLSLTCTVTGGSISRNYWSWIRQPPGKGLEWIGYIYYSGSIDYNPSLKSRVTISVDTSKNQFSLKLSSMTAADTAVYYCARDRWNWKYGMDVWGQGTTVIVSS
VL: EIVLTQSPGTLSLSPGERATLSCRASQTVRNNYLAWYHQKPGQAPRLLIYGASSRATGIPDRFSGSGSGTDFTLTISRLEPEDFTVYYCHQYGNSPWTFGQGTKMEIKR
B4: H1H27729P-N297Q (antibody, human IgG1, V domains shown)
VH: QVQLVESGGGLVKPGGSLRLSCAASGFIFSDYYMSWIRQAPGKGLEWVSYISSSGTTIYGDSVKGRFTMSRDNAKNSLYLQMNSLRAEDTAVYYCARNYALFDYWGQGTLVTVSS
VL: DIQMTQSPSSLSASVGDRVTITCQASQDISKYLNWYQQKPGKAPKLLIYYTSNLETGVPSRFSGSGSGTDFTFTISSLQPEDIATYYCHQSDYLPFTFGPGTKVDIKR
B5: H1H27747P-N297Q (antibody, human IgG1, V domains shown)
VH: QVQLVESGGAVVQPGRSLRLSCAASGFTFSYYGMHWVRQAPGKGLEWVAVISYDGSKKYYADSVKGRFTISRDNSKNTLYLQMNSLRAEDTAVYYCAKDLTVDFYYGMDVWGQGTTVTVSS
VL: DIQMTQSPSSVSASVGDRVTITCRASQGISSWLAWYQQKPGKAPKLLIYATSSLQSGAPSRFSGSGSGTDFTLTISSLQPEDFATYFCQQANSFPYTFGQGTKLEIKR
B6: H1H27754P-N297Q (antibody, human IgG1, V domains shown)
VH: EVQLVESGGGLVQPGGSLRLSCAASGFTFRTYAMTWVRQAPGKGLDWVSAITGDGGNTYYADSVKGRFTISRDNSKNTLYLQMNSLRAEDTAIYYCAKDQRFSFALYYFDYWGQGTLVTVSS
VL: DIQMTQSPSSVSASVGDRVTITCRASQGISSWLAWYQQKPGNAPKLLIYAAFSLQSGVPSRFSGSGSGTDFTLTISSLQPEDFATYYCQQANNFPWTFGQGTKVEIKR
B7: H1H21227N-N297Q (antibody, human IgG1, V domains shown)
VH: QVQLVQSGAEVKKPGASVKVSCKVSGYTLTELSIHWVRQVPGKGLEWMGGFDPEEGETIFAQEFRDRVTLTEDTSPDTAYMELSSLKSEDAAVYYCTTPRYCNNGICYDYWGQGTLVTVSS
VL: DIQMTQSPSSLSASVGDRVTITCRASQSISNYLNWYQQKPGKAPKLLIYTASSLQSGVPSRFSGSGSGTDFTLTISSLQTEDFATYYCQQSYSNFPITFGQGTRLEIKR
B8: H2aM25690N (antibody, mouse IgG2a, V domains shown)
VH: EVQLLESGGGLVQPGGSLRLSCAASGFTFSNYAMTWVRQAPGTGLEWVSAISGRGSNTYYTDSVKGRFTISRDNSKNMLYLQMNSLRAEDTASYYCAKDRFTTVGNWFDPWGQGTLVTVSS
VL: DIQMTQSPSSLSASVGDRVTITCRASQSISSYLNWYQQKPGKAPKLLIYAASSLQNGVPSRFSGSGSGTDFTLTISSLQPEDFATYYCQQSYSSLPITFGQGTRLDIKR
B9: H1H21227N (antibody, human IgG1, V domains shown)
VH: QVQLVQSGAEVKKPGASVKVSCKVSGYTLTELSIHWVRQVPGKGLEWMGGFDPEEGETIFAQEFRDRVTLTEDTSPDTAYMELSSLKSEDAAVYYCTTPRYCNNGICYDYWGQGTLVTVSS
VL: DIQMTQSPSSLSASVGDRVTITCRASQSISNYLNWYQQKPGKAPKLLIYTASSLQSGVPSRFSGSGSGTDFTLTISSLQTEDFATYYCQQSYSNFPITFGQGTRLEIKR
B10: H1H21227N-N297D (antibody, human IgG1, V domains shown)
VH: QVQLVQSGAEVKKPGASVKVSCKVSGYTLTELSIHWVRQVPGKGLEWMGGFDPEEGETIFAQEFRDRVTLTEDTSPDTAYMELSSLKSEDAAVYYCTTPRYCNNGICYDYWGQGTLVTVSS
VL: DIQMTQSPSSLSASVGDRVTITCRASQSISNYLNWYQQKPGKAPKLLIYTASSLQSGVPSRFSGSGSGTDFTLTISSLQTEDFATYYCQQSYSNFPITFGQGTRLEIKR
B11: H2aM25700N (antibody, mouse IgG2a, V domains shown)
VH: QVQLVQSGSEVKKPGASVKVSCKVSGYTLTELSIHWVRQAPGKGLEWMGGFDPEDGETIYAQKFRGRVTMTEDISPDTAYMELSSLRSEDTAVYYCATPRYCNNGICYDYWGQGTLVTVSS
VL: DIQMTQSPSSLSASIGDRVTITCRASQSISSYLNWYQQKPGKAPMLLIYAASSLQSGVPSRFSGSGSGTDFTLTISSLQTEDFATYYCQQSYSTPPITFGQGTRLEIKR
B12: H1H21231N (antibody, human IgG1, V domains shown)
VH: EVQLVESGGGLVQPGGSLRLSCAASGFTFSDHYMDWVRQAPGKGLEWVGRTRNKANSHTTEYTASVTGRFTISRDDSRNSLYLQMNSLKTEDTAVYYCVRAGIIGTLFDYWGQGTLVTVSS
VL: DIQMTQFPSSLSASVGDRVTITCRASQSISSFLNWFQQKPGKAPKFLIYAASSLQSGVPSRFSGSGSGTDFTLTISSLQPEDFATYYCQQSYSSPPITFGQGTRLEIKR
B13: H1H21231N-N297Q (antibody, human IgG1, V domains shown)
VH: EVQLVESGGGLVQPGGSLRLSCAASGFTFSDHYMDWVRQAPGKGLEWVGRTRNKANSHTTEYTASVTGRFTISRDDSRNSLYLQMNSLKTEDTAVYYCVRAGIIGTLFDYWGQGTLVTVSS
VL: DIQMTQFPSSLSASVGDRVTITCRASQSISSFLNWFQQKPGKAPKFLIYAASSLQSGVPSRFSGSGSGTDFTLTISSLQPEDFATYYCQQSYSSPPITFGQGTRLEIKR
B14: H1H27734P-N297Q (antibody, human IgG1, V domains shown)
VH: EVQLVESRGGLVQPGGSLRLSCAASGFTFSSYAMSWVRQAPGKGLEWVSAISGSGGSTFYADSVKGRFTISRDNSKNTVYLQMNSLRAEDTAVYYCAKALVLRFLEWLGDYWGQGTLVTVSS
VL: DIQMTQSPSTLSASVGDRVTITCRASQSISSWLAWFQQKPGKAPKLLIYKASSLESGVPSRFSGSGSGTEFTLTISSLQPDDFATYYCQQYKSYWTFGQGTKVEIKR
B15: H1H27739P-N297Q (antibody, human IgG1, V domains shown)
VH: EVQLVESGGGLVQPGGSLRLSCTASGFTFSSYAMSWVRQAPGKGLEWVSAISGTGSSTYFTDSVKGRFAISRDNSKNTLYLQMNSLRAEDTAVYYCAKDGEWLSTVTLFDYWGQGTLVTVSS
VL: EIVMTQSPATLSVSPGERATLSCRASQSVSSNLAWYQQKPGQAPRLLIYGASTRATGIPARFSGSGSGTDFTLTISSLQSEDFALYYCQQYFIWPPHPTFGPGTKVDIKR
B16: H2aM21229N (antibody, mouse IgG2a, V domains shown)
VH: EVQLVESGGGLVKPGGSLRLSCAASGFTFSRYSMNWVRQAPGKGLEWVSSISSSSSYIYYGDTVKGRFTISRDNAKKSLYLQMNSLRAEDTAVYYCVRDRGQLVLYFDYWGQGTLVTVSS
VL: DIQMTQSPASLSTSIRDRVTITCRASLSISSFLNWFQQRPGKAPKLLIYVASNLQSGVPSRFSDSGSGTDFTLTISSLQPEDFATYYCQQNYSTPPITFGQGTRLEIK

Assays:
[1] = target: endogenously expressed human MSR1 on PMA-treated THP-1 cells (human) (UniProt P21757); assay: confocal imaging, differentiated THP-1 cells, Alexa 488 secondary
[2] = target: endogenously expressed human MSR1 on PMA-treated THP-1 cells (human) (UniProt P21757); assay: cell-based or functional assay
[3] = target: endogenously expressed human MSR1 on PMA-treated THP-1 cells (human) (UniProt P21757); assay: ECL cell binding, PMA-treated THP-1 cells, 11 nM

Sequence of endogenously expressed human MSR1 on PMA-treated THP-1 cells (human) (P21757 whole entry): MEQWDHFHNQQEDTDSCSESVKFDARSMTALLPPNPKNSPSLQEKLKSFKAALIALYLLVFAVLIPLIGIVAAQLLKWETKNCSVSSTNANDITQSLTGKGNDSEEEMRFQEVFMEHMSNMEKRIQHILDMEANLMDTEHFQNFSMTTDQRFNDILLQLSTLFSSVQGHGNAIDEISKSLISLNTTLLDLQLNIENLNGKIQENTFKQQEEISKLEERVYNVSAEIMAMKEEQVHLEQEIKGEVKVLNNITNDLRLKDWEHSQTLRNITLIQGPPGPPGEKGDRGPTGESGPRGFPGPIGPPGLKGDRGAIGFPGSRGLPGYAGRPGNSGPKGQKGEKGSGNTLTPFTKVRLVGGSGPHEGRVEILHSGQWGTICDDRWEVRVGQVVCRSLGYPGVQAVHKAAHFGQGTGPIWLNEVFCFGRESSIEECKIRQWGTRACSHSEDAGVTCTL

| Binder | Total Binding at 4° C. (RFU) [1] [RFU] | Total Binding at 37° C. (RFU) [1] [RFU] | % Internalization [2] [%] | Total Internalized RFU [2] [RFU] | ratio of binding signal (RLU) to isotype control [3] [fold] |
| --- | --- | --- | --- | --- | --- |
| B1 | 1.95e+06 | 5.45e+06 | 13.3 | 723000 | 25 |
| B2 |  |  |  |  | 8 |
| B3 |  |  |  |  | 18 |
| B4 | 1.93e+06 | 6.61e+06 | 57 | 3.76e+06 | 8 |
| B5 | 2.52e+06 | 5.92e+06 | 58.2 | 3.44e+06 | 13 |
| B6 | 3.08e+06 | 7.16e+06 | 90 | 6.45e+06 | 66 |
| B7 | 1.8e+06 | 4.11e+06 | 78.5 | 3.23e+06 | 5 |
| B8 |  |  |  |  | 25 |
| B9 |  |  |  |  | 7 |
| B10 |  |  |  |  | 6 |
| B11 |  |  |  |  | 3 |
| B12 |  |  |  |  | 42 |
| B13 |  |  |  |  | 45 |
| B14 | 483000 | 1.15e+06 |  | 737000 | 21 |
| B15 | 3.7e+06 | 5.61e+06 | 71.6 | 4.02e+06 | 9 |
| B16 |  |  |  |  | 56 |
